Experiment [1] concerns the target phosphorylated tau prepared by incubating recombinant non-phosphorylated tau with a rat brain extract (UniProt P10636). Put plainly: sandwich ELISA on CSF spiked with phosphorylated and non-phosphorylated tau, no amplification.
Experiment [2] deals with recombinant non-phosphorylated tau (UniProt P10636). Put plainly: sandwich ELISA, antibody coated, CSF without added tau (background), detection with biotinylated AT120 and HT7.
Experiment [3] addresses phosphorylated tau prepared by incubating recombinant non-phosphorylated tau with a rat brain extract (UniProt P10636). The experiment is described as above.
Experiment [4] addresses recombinant non-phosphorylated tau (UniProt P10636). Put plainly: sandwich ELISA, antibody coated, CSF spiked with tau, detection with biotinylated AT120 and HT7.
Experiment [5] concerns the target phosphorylated tau prepared by incubating recombinant non-phosphorylated tau with a rat brain extract (UniProt P10636). Described as above.

Take “monoclonal antibody AT180 secreted by the hybridoma deposited at ECACC on Dec. 22, 1992 under No. 92122204”: the detection limit in ELISA in experiment [1] amounted to 10 pg/mL. Besides, the ELISA signal at 0 pg/ml tau (blank) in experiment [2] worked out at 89. Further, in experiment [3], the ELISA signal at 0 pg/ml tau (blank) was determined as 94. For the same substance, in experiment [4], the ELISA signal at 0.2 pg/ml tau stood at 85, the ELISA signal at 1 pg/ml tau amounted to 87, the ELISA signal at 5 pg/ml tau is 90 and the ELISA signal at 25 pg/ml tau is 85. In experiment [4], the ELISA signal at 100 pg/ml tau was 94, the ELISA signal at 500 pg/ml tau came to 92 and the ELISA signal at 2000 pg/ml tau came out at 95. Moreover, in experiment [5], the ELISA signal at 0.2 pg/ml tau came to 95, the ELISA signal at 1 pg/ml tau was found to be 97, the ELISA signal at 5 pg/ml tau amounted to 106 and the ELISA signal at 25 pg/ml tau was determined as 105. Moreover, in experiment [5], the ELISA signal at 100 pg/ml tau turned out to be 125, the ELISA signal at 500 pg/ml tau stood at 179 and the ELISA signal at 2000 pg/ml tau came to 449.

Turning to “monoclonal antibody AT270 secreted by the hybridoma deposited at ECACC on Jul. 7, 1993 under No. 93070774”, the detection limit in ELISA in experiment [1] came to 10 pg/mL. Further, the ELISA signal at 0 pg/ml tau (blank) in experiment [2] worked out at 92. For the same substance, the ELISA signal at 0 pg/ml tau (blank) in experiment [3] was found to be 94. Further, in experiment [4], the ELISA signal at 0.2 pg/ml tau was found to be 91, the ELISA signal at 1 pg/ml tau worked out at 90, the ELISA signal at 5 pg/ml tau amounted to 87 and the ELISA signal at 25 pg/ml tau amounted to 92. In experiment [4], the ELISA signal at 100 pg/ml tau was found to be 96, the ELISA signal at 500 pg/ml tau is 94 and the ELISA signal at 2000 pg/ml tau came to 98. Moreover, in experiment [5], the ELISA signal at 0.2 pg/ml tau was determined as 89, the ELISA signal at 1 pg/ml tau was found to be 83, the ELISA signal at 5 pg/ml tau was 86 and the ELISA signal at 25 pg/ml tau amounted to 113. Moreover, in experiment [5], the ELISA signal at 100 pg/ml tau stood at 158, the ELISA signal at 500 pg/ml tau was determined as 1040 and the ELISA signal at 2000 pg/ml tau amounted to 2650.

Source of the values: patent publication US6500674.
